Test results reported in PMC314469, “Protein Interaction Networks by Proteome Peptide Scanning” (PLoS Biology, 2004).

T1: Myo5 SH3 (MYO5_YEAST), Q04439
T1 chain: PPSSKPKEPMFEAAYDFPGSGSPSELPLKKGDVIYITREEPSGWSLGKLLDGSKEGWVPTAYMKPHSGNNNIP


Molecular target: T1, Myo5 SH3 (MYO5_YEAST), Q04439
Assay: SPOT array

| normalised SPOT signal, Boehringer light units (BLU); mean over the file's lines of this peptide | Binder |
| --- | --- |
| 169 | FEESMNNPLPPLPP [YDL117W 176-189] |
| 87000 | EPPSWKPPDLPIRL [YIL156W 498-511] |
| 1340 | FLSRYPVPDLPIYL [YDR422C 770-783] |
| 6490 | FFFFHLSPSIPFWF [YDL196W 57-70] |
| 67.9 | FEDHHITPSKPGGQ [YDR451C 287-300] |
| 146 | FARTLKIPNEPSPG [YKR038C 231-244] |
| 310 | FEMVFRHPEQPHMI [YBL088C 1519-1532] |
| 142 | FLSYMSEPKYPSNE [YJL029C 360-373] |
| 122 | FFPIMSLPVTPVKS [YER032W 46-59] |
| 122 | FESTLPIPTYPREG [YEL070W 20-33] |

Second part, the binder before the results:

| Binder | normalised SPOT signal, Boehringer light units (BLU); mean over the file's lines of this peptide |
| --- | --- |
| FFTIWFIPLVPVFW [YBL029C-A 44-57] | 397 |
| FASQLRKPRAPMRN [YER141W 445-458] | 460 |
| FFQLMQSPSLPLLM [YDR159W 429-442] | 830 |
| FLALFSDPARPFLT [YHL005C 61-74] | 452 |
| FENLLMEPNLPFFT [YJR031C 942-955] | 202 |
| FAYSLGLPGAPKIK [YJL033W 477-490] | 75.8 |
| FLRTMAQPTDPKDQ [YER171W 720-733] | 257 |
| FLPVFNLPSNPALF [YKL083W 42-55] | 154 |
| FESFLRPPSTPDLP [YLR149C 637-650] | 70.2 |
| FFNRYPNPYSPHVL [YLR193C 22-35] | 137 |
| FEKRYYVPEDPSQD [YPR184W 1320-1333] | 121 |
| EWPGLDPPYIPLDF [YLR308W 63-76] | 62.7 |
| EPIAHLFPPGPKNP [YEL031W 876-889] | 356 |
